Assay results taken from patent US20260232827A1 (Zymeworks, published 2026).
Where two headings read alike, the source gives them in different places.

Columns and labels:
Test in all cases: cell-based or functional assay
[1] = molecular target: T1, human sodium-dependent phosphate transporter 2B (NaPi2b) (human, UniProt O95436 1-690)
T1 sequence: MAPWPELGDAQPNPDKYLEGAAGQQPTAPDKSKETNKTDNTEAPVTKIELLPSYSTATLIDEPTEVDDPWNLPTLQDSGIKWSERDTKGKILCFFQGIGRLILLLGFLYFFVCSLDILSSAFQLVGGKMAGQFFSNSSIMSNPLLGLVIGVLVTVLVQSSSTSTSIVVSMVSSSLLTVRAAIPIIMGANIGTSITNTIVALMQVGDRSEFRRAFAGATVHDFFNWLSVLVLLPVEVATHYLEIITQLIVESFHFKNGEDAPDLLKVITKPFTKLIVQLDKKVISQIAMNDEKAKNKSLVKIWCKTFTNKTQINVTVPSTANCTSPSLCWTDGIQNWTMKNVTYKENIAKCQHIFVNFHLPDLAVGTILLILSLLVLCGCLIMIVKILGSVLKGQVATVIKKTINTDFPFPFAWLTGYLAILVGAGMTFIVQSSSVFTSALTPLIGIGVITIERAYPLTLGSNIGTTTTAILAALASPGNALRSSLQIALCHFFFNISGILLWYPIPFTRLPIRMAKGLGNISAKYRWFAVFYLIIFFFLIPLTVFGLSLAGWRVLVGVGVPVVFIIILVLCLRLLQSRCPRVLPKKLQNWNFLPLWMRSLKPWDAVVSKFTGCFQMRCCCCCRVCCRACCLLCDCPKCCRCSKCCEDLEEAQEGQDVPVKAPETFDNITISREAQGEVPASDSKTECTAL

[2] = molecular target: T1, human sodium-dependent phosphate …; remark: listed apart in the source
[3] = molecular target: T1, human sodium-dependent phosphate …; remark: listed apart in the source
[4] = molecular target: T1, human sodium-dependent phosphate …; remark: listed apart in the source

B1: v29456-MT-GGFG-AM-Compound 139 DAR 8 (antibody, human IgG1, kappa)
heavy: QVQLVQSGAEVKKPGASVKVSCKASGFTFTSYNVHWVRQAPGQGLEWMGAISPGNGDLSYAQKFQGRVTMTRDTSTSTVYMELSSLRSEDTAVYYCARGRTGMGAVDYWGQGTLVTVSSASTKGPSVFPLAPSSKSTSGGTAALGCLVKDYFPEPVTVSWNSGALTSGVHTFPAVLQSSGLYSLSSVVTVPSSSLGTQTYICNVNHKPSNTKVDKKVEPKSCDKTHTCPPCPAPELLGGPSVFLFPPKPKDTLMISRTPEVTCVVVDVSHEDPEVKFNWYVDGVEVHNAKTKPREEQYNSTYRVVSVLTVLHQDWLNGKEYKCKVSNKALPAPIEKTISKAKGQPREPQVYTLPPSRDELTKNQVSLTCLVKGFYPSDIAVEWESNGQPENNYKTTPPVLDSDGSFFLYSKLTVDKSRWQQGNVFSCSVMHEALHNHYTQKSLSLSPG
light: DVQMTQSPSSLSASVGDRVTITCRASQDVYSYLNWYQQKPGKAVKLLIYYTSRLQSGVPSRFSGSGSGTDYTLTISSLQPEDFATYYCQQYNIFPWTFGQGTKLEIKRTVAAPSVFIFPPSDEQLKSGTASVVCLLNNFYPREAKVQWKVDNALQSGNSQESVTEQDSKDSTYSLSSTLTLSKADYEKHKVYACEVTHQGLSSPVTKSFNRGEC
modifications: drug-linker MT-GGFG-AM-Compound 139 on cysteine thiols after TCEP reduction, positions not given; DAR 8 for the whole antibody
[1]
  EC50, in vitro cytotoxicity, HCC-78 spheroids: 0.82 nM
  EC50, in vitro cytotoxicity, IGROV-1 spheroids: 0.37 nM
[2]
  EC50, in vitro cytotoxicity, 2D monolayer, HCC-78: 0.65 nM
  EC50, in vitro cytotoxicity, 2D monolayer, IGROV-1: 1.71 nM

B2: v29456-MC-GGFG-Compound 141 DAR 8 (antibody, human IgG1, kappa)
heavy: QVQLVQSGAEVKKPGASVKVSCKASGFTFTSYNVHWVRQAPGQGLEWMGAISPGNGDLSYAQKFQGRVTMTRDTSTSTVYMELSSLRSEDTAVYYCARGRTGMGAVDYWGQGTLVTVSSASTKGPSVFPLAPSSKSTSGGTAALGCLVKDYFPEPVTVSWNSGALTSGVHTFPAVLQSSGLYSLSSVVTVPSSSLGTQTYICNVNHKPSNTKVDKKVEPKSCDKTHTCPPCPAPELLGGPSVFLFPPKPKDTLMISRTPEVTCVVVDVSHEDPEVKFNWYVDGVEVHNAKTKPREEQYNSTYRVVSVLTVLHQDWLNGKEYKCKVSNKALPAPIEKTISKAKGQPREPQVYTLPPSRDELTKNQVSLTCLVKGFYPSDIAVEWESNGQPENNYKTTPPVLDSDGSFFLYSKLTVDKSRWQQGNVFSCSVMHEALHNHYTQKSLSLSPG
light: DVQMTQSPSSLSASVGDRVTITCRASQDVYSYLNWYQQKPGKAVKLLIYYTSRLQSGVPSRFSGSGSGTDYTLTISSLQPEDFATYYCQQYNIFPWTFGQGTKLEIKRTVAAPSVFIFPPSDEQLKSGTASVVCLLNNFYPREAKVQWKVDNALQSGNSQESVTEQDSKDSTYSLSSTLTLSKADYEKHKVYACEVTHQGLSSPVTKSFNRGEC
modifications: drug-linker MC-GGFG-Compound 141 on cysteine thiols after TCEP reduction, positions not given; DAR 8.0 for the whole antibody
[3]
  EC50, in vitro cytotoxicity, IGROV-1 spheroids: 0.44 nM
  EC50, in vitro cytotoxicity, TOV-21G:HDFa (1:1) spheroids: 0.9 nM
[4]
  EC50, in vitro cytotoxicity, 2D monolayer, IGROV-1: 3.01 nM
  EC50, in vitro cytotoxicity, 2D monolayer, TOV-21G: 0.93 nM

B3: v29456-MT-GGFG-Compound 140 DAR 8 (antibody, human IgG1, kappa)
heavy: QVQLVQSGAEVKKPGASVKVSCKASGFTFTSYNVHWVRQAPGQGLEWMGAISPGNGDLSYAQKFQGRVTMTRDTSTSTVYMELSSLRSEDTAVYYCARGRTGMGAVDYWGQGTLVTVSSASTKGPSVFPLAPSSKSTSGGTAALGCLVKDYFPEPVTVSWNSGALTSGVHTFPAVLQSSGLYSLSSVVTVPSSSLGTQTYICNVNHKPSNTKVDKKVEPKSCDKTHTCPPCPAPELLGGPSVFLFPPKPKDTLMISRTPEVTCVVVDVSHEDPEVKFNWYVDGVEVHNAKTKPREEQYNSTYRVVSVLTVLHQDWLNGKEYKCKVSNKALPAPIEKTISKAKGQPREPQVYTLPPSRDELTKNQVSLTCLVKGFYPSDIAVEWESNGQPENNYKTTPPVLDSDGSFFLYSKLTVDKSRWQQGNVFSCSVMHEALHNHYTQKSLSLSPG
light: DVQMTQSPSSLSASVGDRVTITCRASQDVYSYLNWYQQKPGKAVKLLIYYTSRLQSGVPSRFSGSGSGTDYTLTISSLQPEDFATYYCQQYNIFPWTFGQGTKLEIKRTVAAPSVFIFPPSDEQLKSGTASVVCLLNNFYPREAKVQWKVDNALQSGNSQESVTEQDSKDSTYSLSSTLTLSKADYEKHKVYACEVTHQGLSSPVTKSFNRGEC
modifications: drug-linker MT-GGFG-Compound 140 on cysteine thiols after TCEP reduction, positions not given; DAR 8 for the whole antibody
[1]
  EC50, in vitro cytotoxicity, HCC-78 spheroids: 0.19 nM
  EC50, in vitro cytotoxicity, IGROV-1 spheroids: 0.25 nM
[2]
  EC50, in vitro cytotoxicity, 2D monolayer, HCC-78: 0.6 nM

B4: v29456-MC-GGFG-AM-Compound 139 DAR 3.4 (antibody, human IgG1, kappa)
heavy: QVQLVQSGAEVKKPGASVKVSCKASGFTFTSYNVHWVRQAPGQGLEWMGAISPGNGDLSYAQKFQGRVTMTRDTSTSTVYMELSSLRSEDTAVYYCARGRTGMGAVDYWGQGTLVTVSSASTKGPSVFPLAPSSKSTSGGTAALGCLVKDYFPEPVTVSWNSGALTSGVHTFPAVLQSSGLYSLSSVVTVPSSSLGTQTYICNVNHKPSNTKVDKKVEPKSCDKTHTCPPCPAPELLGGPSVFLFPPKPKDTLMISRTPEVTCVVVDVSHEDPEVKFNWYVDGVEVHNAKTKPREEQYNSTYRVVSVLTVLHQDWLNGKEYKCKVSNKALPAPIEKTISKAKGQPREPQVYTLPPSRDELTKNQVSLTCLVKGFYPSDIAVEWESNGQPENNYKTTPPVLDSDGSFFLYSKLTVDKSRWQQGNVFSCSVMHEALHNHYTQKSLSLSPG
light: DVQMTQSPSSLSASVGDRVTITCRASQDVYSYLNWYQQKPGKAVKLLIYYTSRLQSGVPSRFSGSGSGTDYTLTISSLQPEDFATYYCQQYNIFPWTFGQGTKLEIKRTVAAPSVFIFPPSDEQLKSGTASVVCLLNNFYPREAKVQWKVDNALQSGNSQESVTEQDSKDSTYSLSSTLTLSKADYEKHKVYACEVTHQGLSSPVTKSFNRGEC
modifications: drug-linker MC-GGFG-AM-Compound 139 on cysteine thiols after TCEP reduction, positions not given; DAR 3.4 for the whole antibody
[3]
  EC50, in vitro cytotoxicity, IGROV-1 spheroids: 0.88 nM
  EC50, in vitro cytotoxicity, TOV-21G:HDFa (1:1) spheroids: 0.76 nM
[4]
  EC50, in vitro cytotoxicity, 2D monolayer, IGROV-1: 5.46 nM

B5: v29456-MC-GGFG-AM-DXd1 DAR 8 (antibody, human IgG1, kappa)
heavy: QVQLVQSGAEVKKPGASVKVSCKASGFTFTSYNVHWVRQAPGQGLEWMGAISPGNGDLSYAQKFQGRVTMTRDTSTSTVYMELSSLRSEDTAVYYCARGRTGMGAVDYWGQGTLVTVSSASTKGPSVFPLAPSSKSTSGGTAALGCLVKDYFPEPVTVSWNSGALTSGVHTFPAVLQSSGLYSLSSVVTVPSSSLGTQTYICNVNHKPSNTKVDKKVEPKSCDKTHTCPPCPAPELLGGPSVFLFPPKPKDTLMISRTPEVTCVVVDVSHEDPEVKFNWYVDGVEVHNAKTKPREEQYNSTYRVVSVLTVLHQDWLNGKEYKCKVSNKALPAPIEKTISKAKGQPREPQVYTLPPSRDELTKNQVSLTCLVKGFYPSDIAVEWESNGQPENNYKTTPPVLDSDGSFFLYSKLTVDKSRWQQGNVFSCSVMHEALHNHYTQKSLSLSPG
light: DVQMTQSPSSLSASVGDRVTITCRASQDVYSYLNWYQQKPGKAVKLLIYYTSRLQSGVPSRFSGSGSGTDYTLTISSLQPEDFATYYCQQYNIFPWTFGQGTKLEIKRTVAAPSVFIFPPSDEQLKSGTASVVCLLNNFYPREAKVQWKVDNALQSGNSQESVTEQDSKDSTYSLSSTLTLSKADYEKHKVYACEVTHQGLSSPVTKSFNRGEC
modifications: drug-linker MC-GGFG-AM-DXd1 on cysteine thiols after TCEP reduction, positions not given; DAR 8 for the whole antibody
[1]
  EC50, in vitro cytotoxicity, HCC-78 spheroids: 0.6 nM
  EC50, in vitro cytotoxicity, IGROV-1 spheroids: 0.27 nM
[2]
  EC50, in vitro cytotoxicity, 2D monolayer, HCC-78: 0.55 nM
  EC50, in vitro cytotoxicity, 2D monolayer, IGROV-1: 0.45 nM

B6: v29456-MC-GGFG-Compound 141 DAR 3.4 (antibody, human IgG1, kappa)
heavy: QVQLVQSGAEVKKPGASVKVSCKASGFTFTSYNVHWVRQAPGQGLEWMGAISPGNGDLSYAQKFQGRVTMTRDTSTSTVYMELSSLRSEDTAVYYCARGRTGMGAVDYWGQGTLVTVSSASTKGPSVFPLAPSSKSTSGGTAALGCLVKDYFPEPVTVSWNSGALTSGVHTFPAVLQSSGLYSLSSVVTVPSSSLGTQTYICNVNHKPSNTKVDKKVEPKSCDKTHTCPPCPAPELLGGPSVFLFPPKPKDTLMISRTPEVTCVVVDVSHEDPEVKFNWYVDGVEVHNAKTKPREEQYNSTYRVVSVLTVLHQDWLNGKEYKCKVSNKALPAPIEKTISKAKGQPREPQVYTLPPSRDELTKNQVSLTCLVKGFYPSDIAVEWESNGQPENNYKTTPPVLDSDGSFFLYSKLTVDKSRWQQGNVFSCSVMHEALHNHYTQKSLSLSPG
light: DVQMTQSPSSLSASVGDRVTITCRASQDVYSYLNWYQQKPGKAVKLLIYYTSRLQSGVPSRFSGSGSGTDYTLTISSLQPEDFATYYCQQYNIFPWTFGQGTKLEIKRTVAAPSVFIFPPSDEQLKSGTASVVCLLNNFYPREAKVQWKVDNALQSGNSQESVTEQDSKDSTYSLSSTLTLSKADYEKHKVYACEVTHQGLSSPVTKSFNRGEC
modifications: drug-linker MC-GGFG-Compound 141 on cysteine thiols after TCEP reduction, positions not given; DAR 3.4 for the whole antibody
[3]
  EC50, in vitro cytotoxicity, IGROV-1 spheroids: 1.31 nM
  EC50, in vitro cytotoxicity, TOV-21G:HDFa (1:1) spheroids: 0.99 nM
[4]
  EC50, in vitro cytotoxicity, 2D monolayer, IGROV-1: 16.4 nM

B7: v29456-MT-GGFG-AM-Compound 129 DAR 8 (antibody, human IgG1, kappa)
heavy: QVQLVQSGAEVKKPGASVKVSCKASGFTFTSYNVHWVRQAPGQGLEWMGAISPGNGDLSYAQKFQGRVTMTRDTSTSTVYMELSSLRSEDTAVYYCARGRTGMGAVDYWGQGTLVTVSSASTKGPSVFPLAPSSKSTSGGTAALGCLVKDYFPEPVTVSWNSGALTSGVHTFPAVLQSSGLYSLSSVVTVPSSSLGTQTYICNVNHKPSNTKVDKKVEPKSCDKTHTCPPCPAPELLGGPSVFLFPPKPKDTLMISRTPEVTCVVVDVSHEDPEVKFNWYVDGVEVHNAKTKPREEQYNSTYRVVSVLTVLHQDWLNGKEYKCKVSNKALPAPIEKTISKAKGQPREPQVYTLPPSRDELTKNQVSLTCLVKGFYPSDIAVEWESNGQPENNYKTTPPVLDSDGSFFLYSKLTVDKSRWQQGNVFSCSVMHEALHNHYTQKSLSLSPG
light: DVQMTQSPSSLSASVGDRVTITCRASQDVYSYLNWYQQKPGKAVKLLIYYTSRLQSGVPSRFSGSGSGTDYTLTISSLQPEDFATYYCQQYNIFPWTFGQGTKLEIKRTVAAPSVFIFPPSDEQLKSGTASVVCLLNNFYPREAKVQWKVDNALQSGNSQESVTEQDSKDSTYSLSSTLTLSKADYEKHKVYACEVTHQGLSSPVTKSFNRGEC
modifications: drug-linker MT-GGFG-AM-Compound 129 on cysteine thiols after TCEP reduction, positions not given; DAR 8 for the whole antibody
[2]
  EC50, in vitro cytotoxicity, 2D monolayer, HCC-78: 0.42 nM
  EC50, in vitro cytotoxicity, 2D monolayer, IGROV-1: 1.11 nM

B8: v29456-MT-GGFG-AM-Compound 141 DAR 8 (antibody, human IgG1, kappa)
heavy: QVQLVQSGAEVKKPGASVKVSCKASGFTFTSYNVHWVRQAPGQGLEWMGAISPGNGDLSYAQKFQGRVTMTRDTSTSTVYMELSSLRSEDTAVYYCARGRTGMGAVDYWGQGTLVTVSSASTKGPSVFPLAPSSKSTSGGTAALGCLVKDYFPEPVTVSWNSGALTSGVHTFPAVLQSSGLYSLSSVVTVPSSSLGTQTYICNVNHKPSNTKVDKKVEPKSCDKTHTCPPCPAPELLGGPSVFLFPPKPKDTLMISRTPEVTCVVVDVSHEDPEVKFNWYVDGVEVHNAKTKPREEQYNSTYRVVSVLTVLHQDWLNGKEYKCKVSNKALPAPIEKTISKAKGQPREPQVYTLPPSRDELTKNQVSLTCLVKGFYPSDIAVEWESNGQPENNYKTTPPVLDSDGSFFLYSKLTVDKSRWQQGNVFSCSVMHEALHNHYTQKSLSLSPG
light: DVQMTQSPSSLSASVGDRVTITCRASQDVYSYLNWYQQKPGKAVKLLIYYTSRLQSGVPSRFSGSGSGTDYTLTISSLQPEDFATYYCQQYNIFPWTFGQGTKLEIKRTVAAPSVFIFPPSDEQLKSGTASVVCLLNNFYPREAKVQWKVDNALQSGNSQESVTEQDSKDSTYSLSSTLTLSKADYEKHKVYACEVTHQGLSSPVTKSFNRGEC
modifications: drug-linker MT-GGFG-AM-Compound 141 on cysteine thiols after TCEP reduction, positions not given; DAR 8 for the whole antibody
[1]
  EC50, in vitro cytotoxicity, HCC-78 spheroids: 0.33 nM
  EC50, in vitro cytotoxicity, IGROV-1 spheroids: 0.21 nM
[2]
  EC50, in vitro cytotoxicity, 2D monolayer, HCC-78: 0.26 nM
  EC50, in vitro cytotoxicity, 2D monolayer, IGROV-1: 1.56 nM

B9: v29456-MT-GGFG-Compound 148 DAR 8 (antibody, human IgG1, kappa)
heavy: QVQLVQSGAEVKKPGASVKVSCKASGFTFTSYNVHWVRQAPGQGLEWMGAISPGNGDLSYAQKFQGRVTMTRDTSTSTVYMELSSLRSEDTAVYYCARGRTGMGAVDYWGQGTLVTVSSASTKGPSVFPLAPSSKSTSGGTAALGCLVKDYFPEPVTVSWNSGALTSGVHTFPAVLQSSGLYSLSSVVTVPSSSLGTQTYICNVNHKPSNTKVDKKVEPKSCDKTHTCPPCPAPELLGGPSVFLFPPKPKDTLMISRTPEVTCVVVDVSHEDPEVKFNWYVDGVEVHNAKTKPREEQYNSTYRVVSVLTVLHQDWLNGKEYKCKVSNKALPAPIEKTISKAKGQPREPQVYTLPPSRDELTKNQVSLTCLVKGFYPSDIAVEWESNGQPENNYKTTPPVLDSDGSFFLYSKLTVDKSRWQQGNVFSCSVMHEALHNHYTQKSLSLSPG
light: DVQMTQSPSSLSASVGDRVTITCRASQDVYSYLNWYQQKPGKAVKLLIYYTSRLQSGVPSRFSGSGSGTDYTLTISSLQPEDFATYYCQQYNIFPWTFGQGTKLEIKRTVAAPSVFIFPPSDEQLKSGTASVVCLLNNFYPREAKVQWKVDNALQSGNSQESVTEQDSKDSTYSLSSTLTLSKADYEKHKVYACEVTHQGLSSPVTKSFNRGEC
modifications: drug-linker MT-GGFG-Compound 148 on cysteine thiols after TCEP reduction, positions not given; DAR 8 for the whole antibody
[2]
  EC50, in vitro cytotoxicity, 2D monolayer, HCC-78: 1.98 nM
